Test: soluble on expression in E. coli; label from the status in PepcDB or PDB records

Sequence	soluble on expression in E. coli
MGHHHHHHSHMMQSVDVVIIGGGMVGLALAAALKESDLRIAVVENQLPEEALNPLPDVRVSALSRSSEIVLRNLNAWAGIEARRAAPYIAMEVWEQDSFARIEFKANEMTQPNLGHIVENRVIQLALFEQVQQQANVTLHVPATCQSIAVGESEAWLTLSNGQALSAKLVVGADGANSWLRRQMDIPLTHWDYGHSALVANVRTSDPHNKVARQIFTAQGPLAFLPMSEPHMSSIVWSTEPSRAEALLNMNDVQFNKALTAEFDARLGRCEVVGERQAFPLKMRYARDFVAPRVALVGDAAHTIHPLAGQGVNLGLLDAACLAQELLSLWQQNRDIGDERNLRHYERWRKAEAAKMIAAMQGFRDLFEGDNPAKKLIRGIGMRLVGQLPGAKDEIMKRALGLKGDLPELAKQVWLERAY	soluble
MSRIRSNNDNIIILTDEQRKTVGRIAGRSQNRNTSKKIADGPYFLPRYRIRDNAERSVGARFKSLPQKEQDEVVNEAFSNLREYLKKREPFYAKLRKANSKYSSKPKEREKSVDSNDEADRRNKGNKKTQKNASKNCQIEKSSNNSGILKKSGSGISVASKPKKSVAFAPGVYEDLSTDDDLEFLNSVIVNSDRPTSQCDNPARRMCGRPPTKHRDTEQSQEITGSKKQKIFPTPHEKPAWWSFRIPKKRAQ	soluble
GIVMTQTPASQSASLGESVTITCLASQTIGTWLAWYQQKPGKSPQLLIYAATSLADGVPSRFSGSGSGTKFSFKISSLQAEDFVSYYCQQLSSTPYTFGGGTKLEIKRADAAPTVSIFPPSSEQLTSGGASVVCFLNNFYPKDINVKWKIDGKERQNGVLNSWTDQDSKDSTYSMSSTLTLTKDEYERHNSYTCEATHKTSTSPIVKSFNRNE	soluble
GMSAPEDWNSQVIQEFRANGGRVGGNFEGAPMVLVHHVGRKTGKAAVTPMMYLPSDDDPGTIYVFASKAGAASNPAWYYNLTTAGTAQVEVGTETYAVGVTEVTGEDRDRIYSEQARRYPGFADYEKKTAGIRTIPVLALTRT	soluble
MARATLACMEKITGAERSPEARDSAGAVGGADGREALVARVRAGERIKYLCFWGHRPLPDGRLGPSCLSQWWPSPFTVAGVEYATAEHWMMAGKARLFGDPEAERRVLAAAHPAGAKKAGRLVRGFDEAVWERERFRIVVEGSVHKFASDPALRVFLLATGERVLVEASPVDRVWGIGLAADDEAAVDPERWRGPNLLGFALMAARERLRAGELEHHHHHH	not soluble
MSLKHVIVETEETGYQTRSRVVSVEARTIRVPLERSTAFSTRLVTARDYTVVRVTTADGHYGIGFCYSGNRAGMLVTYAVRELFAPLLLGRSALDVEGSWCAMYDESLLQGRAGSVMRALSILDIALWDRNARATGLPLSRYLGGTCSATVPAYASGGYYLEGKTPEHLGEEMAGYVALGFRAVKMKVGRLDPRSEEARIRAAREAIGDDVLLMLDANNAWSDVPTALEYMRRYEPFNPYWIEEPFSPDDIESHAQLSRRTPVTVATGEIEAGRWRHQELLDKRAALILQSDAAVCGGISEWRRIAASAAAVGVTMCPHWFHDLHVHLVASTTNARYVEFFPDDQVLNFRRLVDTQLSFADGKLTVPTRPGLGFDFDEAALNEYALDDWAEGHHHHHH	not soluble
MCEATYGGASPQIRRQRFVILGMSDDPHPFFPPAAMTAIASGKIFSGGKRHHEIVRGLLPADAEWIDITVPLDDVFARYREYEEIVVFASGDPLFFGFANTVMNRLPDAVVTVYPTFNSLQMLAHALRMPYHDMRIVSLTGRPWHEFDRALIERAEKIGILTDHEHTPSAIAMRMLDYGYEDYTMSVGTRMGNPQEQCLDTFSLREAADRDFERPNCVILSATRPFVCSRAPLGLSESAFMPLNGRTKMITKMPFRLVSLSCLELHRASSFWDIGFCTGSVSIEAKLNFPHLHITAFEIRPEGAELMPVNSRRFGAPGIAYRIGDFMEEDISSLAPPDAVFIGGHGGRLVEMIAKVHSVMTKGGLLVFNSVSEESRHLFLTGIEACGMELLSSIRLTADGNNPIDILQARKKE	not soluble
MGVISAYAVVHERAAIIDPGTAKGAEIILDEIDRSWNVEYICPTHIHIDHGGGAARLAKALDAKIIVHPRGVKHVVNPEKLWEASKAVLGEVAEIYGKPESIDESKVIAVEDEQEFDLGGERLKVFHAPGHAPHMLVYYLTNSKVLFPADAVGMCFGGVVFPLTPPPFDADAALKTLKRLKGLKVDYVAFTHYGVVELEHHHHHH	soluble
MHHHHHHSSGVDLGTENLYFQSMQRGYLLTRNPHLNKDLAFTLEERQQLNIHGLLPPSFNSQEIQVLRVVKNFEHLNSDFDRYLLLMDLQDRNEKLFYRVLTSDIEKFMPIVYTPTVGLACQQYSLVFRKPRGLFITIHDRGHIASVLNAWPEDVIKAIVVTDGERILGLGDLGCNGMGIPVGKLALYTACGGMNPQECLPVILDVGTENEELLKDPLYIGLRQRRVRGSEYDDFLDEFMEAVSSKYGMNCLIQFEDFANVNAFRLLNKYRNQYCTFNDDIQGTASVAVAGLLAALRITKNKLSDQTILFQGAGEAALGIAHLIVMALEKEGLPKEKAIKKIWLVDSKGLIVKGRASLTQEKEKFAHEHEEMKNLEAIVQEIKPTALIGVAAIGGAFSEQILKDMAAFNERPIIFALSNPTSKAECSAEQCYKITKGRAIFASGSPFDPVTLPNGQTLYPGQGNNSYVFPGVALGVVACGLRQITDNIFLTTAEVIAQQVSDKHLEEGRLYPPLNTIRDVSLKIAEKIVKDAYQEKTATVYPEPQNKEAFVRSQMYSTDYDQILPDCYSWPEEVQ	soluble
MSLSIALIAPYESLATLCRSICQELDLDVSVHTGSMEDGVRIARNLMAEGVDFFISRGLTAQLIREQCPLPVAELEVSAFDIYLCLEPLLRSGKSIGVVGHSDILRKAKGASAALGFTIDFYATAHPGGMGHIMEAARRQGIAAIAGDAVAARTAERYGMEGVLVQNGADSVTNTLQYAVATYSYLTRQATMAGRLQTVLDRMDGGALLASPDGRMLHCNAAVRAMLEPDQGCTETSMDDLFPQLDWRAVPEGRAETVRELVTVGGSKLAVTVTGTMHDDAMDALICTFHDVRQIEQLEHSFRKSEGHHHHHH	soluble
MSLSLVIAAGTILGACGNSEKSSGSGEGKNKFSVAMVTDVGGVDDKSFNQSAWEGIQAFGKENGLKKGKNGYDYLQSKSDADYTTNLNKLARENFDLIYGVGYLMEDSISEIADQRKNTNFAIIDAVVDKDNVASITFKEQEGSFLVGVAAALSSKSGKIGFVGGMESELIKKFEVGFRAGVQAVNPKAVVEVKYAGGFDKADVGKATAESMYKSGVDVIYHSAGATGTGVFTEAKNLKKEDPKRDVWVIGVDKDQYAEGQVEGTDDNVTLTSMVKKVDTVVEDVTKKASDGKFPGGETLTYGLDQDGVGISPSKQNLSDDVIKAVDKWKKKIIDGLEIPATEKELKTFKAEEGGSHHHHHH	soluble
MNNYSGDIVFMSGGNEEDQLAQCQAYVQRHNIQQLVKEAIVVLCIHKPDNPVLFLKDHFEKLNEQRAQEGGNPDAADDDDIIVEPPKRSGGRRTGISAEPIKEDDTEYKKVVIPKDDATRRSLESAMRKNLLFAHLEEDEQKTMYDAMFPVEKSAGETIIEQGEEGDNFYVIDKGTVDVYVNHEYVLTINEGGSFGELALIYGTPRAATVIAKTDVKLWAIDRLTYRRILMGSVTKKRKMYDEFLSKVQILADLDQWERANVADALERCDFEPGTHVVEQGQPGDEFFIILEGEANVLQKRSDDAPFDVVGHLGMSDYFGEIALLLDRPRAATVVAKTHLKCIKLDRNRFERVMGPVREILKRDVSNYNSYVKLMT	soluble
MGSDKIHHHHHHLYFLDNQLAQQIVDRTMAIIGHNINVMNSQGVILGSGEPHRIGSTHEGALLAISQNRTVELNSASAASLQGVKPGINLPLHYQGEIIGVIGITGEPEHLKAFGELLKMTAEMIVEQANSLDVAQWRARQQEEFILQLIKPEGRDLNHLKIWAQRLDIDLEMPRVAAVLRISDDAGDELANSQLKTVLHLLETPSRGNLIAMTSMTELVILKPAFLDGKAWSAEAESLRIDRLLKRLPSELNARLKISLGHYFPATMDINRSYQTALETLNFGQQLHPEQSKYLYEDHALLVMLSGLKHDWRGEQLLRPFQRLIDRDKNALLRKTLASYLGHFGDQQACAKALFIHRNTLRYRLDKIAQITKVDIQKLDGLLQLYLGQVLLSRGQDQG	not soluble
NFLDFEKPIVELETKIQALRDVSRHSTSASVDLDKELEQLEKKSLELKKKIFSDLGAWQVAQLARHPQRPYTLDYLKHIFTEFDELAGDRAYADDKAIVGGIARLEGRSVMVIGHQKGRETREKVKRNFGMPKPEGYRKALRLMEMAERFNM	not soluble
